# Laboratory results published in US20050260683A1, “Methods for diagnosing and treating pre-term labor” (University of Hawaii, priority 2002, published 2005).
# “Also recorded” adds a separate entry of the source.
# B1: rhPBEF: recombinant human pre-B cell colony-enhancing factor produced in a bacterial system using pTrcHis2 vector (protein)
# chain: MNPAAEAEFNILLATDSYKVTHYKQYPPNTSKVYSYFECREKKTENSKLRKVKYEETVFYGLQYILNKYLKGKVVTKEKIQEAKDVYKEHFQDDVFNEKGWNYILEKYDGHLPIEIKAVPEGFVIPRGNVLFTVENTDPECYWLTNWIETILVQSWYPITVATNSREQKKILAKYLLETSGNLDGLEYKLHDFGYRGVSSQETAGIGASAHLVNFKGTDTVAGLALIKKYYGTKDPVPGYSVPAAEHSTITAWGKDHEKDAFEHIVTQFSSVPVSVVSDSYDIYNACEKIWGEDLRHLIVSRSTQAPLIIRPDSGNPLDTVLKVLEILGKKFPVTENSKGYKLLPPYLRVIQGDGVDINTLQEIVEGMKQKMWSIENIAFGSGGGLLQKLTRDLLNCSFKCSYVVTNGLGINVFKDPVADPNKRSKKGRLSLHRTPAGNFVTLEEGKGDLEEYGQDLLHTVFKNGKVTKSYSFDEIRKNAQLNIELEAAHH
# Columns and labels:
# Assay type in all cases: cell-based, human
# [1] = system: IL-8 gene expression in fetal membrane explants; assay: rhPBEF treatment of fetal membrane explants, IL-8 gene expression by Northern analysis; details: rhPBEF 100 ng/ml, 4 h, vs control
# From the text: (§1) elective term Cesarean section without labor (n=7). For the Northern analysis of IL-6 and IL-8 gene expression after rhPBEF treatment, fetal membranes from elective term Cesarean sections before labor (37-40 weeks gestation, n=6) were collected and cut into 3×3 cm explants. None of the preterm or term patients or tissues had any clinical or histological signs of chorioamnionitis. The placentas and membranes were examined by a pathologist for histological evidence of infection using the criteria of Naeye (see Naeye R I. “Disorders of the placenta, fetus and neonate: diagnosis and clinical significance.” St Louis: C U Mosby; 1992. p.258) and all tissues with any sign of infection were excluded from this study.
# (§2) Total RNA was extracted (see Chomzynski and Sacchi, supra) and MRNA prepared as previously described (see Aviv and Leder, supra). Samples of MRNA (10-20 μg) were electrophoresed, and the RNA transferred to a nylon membrane (Magna Graph, MSI, Westborough, Mass.) as previously described (see Ognjanovic et al., supra). The cDNA probes were labeled using the Random Primed DNA labeling kit and following the manufacturer's instructions (Invitrogen, Carlsbad, Calif.). The filters were hybridized at 68° C. for 1 h using Express Hyb solution (Clontech, Palo Alto, Calif., USA). A final wash stringency of 0.1×SSC, 0.1% SDS was performed at 50° C. Filters were deprobed in 0.5% SDS for 10 min at 100° C. and re-hybridized sequentially with cDNA probes to PBEF, IL-6 and IL-8 and finally with a human glyceraldehyde-3 phosphate dehydrogenase (G3PDH) cDNA probe (Clontech), as an internal standard. The Northern blot was quantitated with a Phospholmager (Amersham Pharmacia Biotech, Piscataway, N.Y.), using the G3PDH value for each sample to standardize sample loading. Results were expressed as a ratio to G3PDH. Statistical analysis was performed using the Tukey-Kramer multiple comparison test.
# Each fetal membrane was cut into several 3×3 cm explants. […]
# [2] = system: IL-6 gene expression in amniotic epithelial (WISH) cells; assay: rhPBEF treatment of WISH cells, IL-6 gene expression by Northern analysis; details: for increase in IL-6 gene expression: 4 h, vs control
# Experimental: as §2
# (§3) The amnion-like epithelial (WISH) cells were obtained from American Type Culture Collection (ATCC# CCL-25) (ATCC, Manassas, Va.). WISH cells were cultured in Dulbecco's Modified Eagle Medium:Ham F-12 (DMEM:F12) (1:1) supplemented with 10% fetal bovine serum (FBS) (Life Technologies, Grand Island, N.Y.), penicillin (50 U/ml)-streptomycin (50 μg/ml) and incubated at 37° C. in 5% CO2/95% air. After reaching confluency, the cells were trypsinized and plated into 6-well culture dishes at a density of 1×10^5 cells in 4 ml media. After 48 h or when the cells reached 80% confluency, the growth medium was replaced with minimal media (0.5% FBS and 0.2% lactalbumin in DMEM:F12) and incubated for 12 h. Treatment of the cells began with addition of rhPBEF prepared in minimal media. The concentration of rhPBEF was determined using the BioRad protein assay and 1, 10 and 100 ng/ml was added to the cells for 4 and 24 h. Treatment was carried out in triplicate and each experiment was performed at least three times on different occasions. Controls received minimal media containing 0.5% bovine serum albumin (15 μl) in phosphate buffer saline (PBS). […]
# In addition to fetal membrane explants, the amniotic epithelial cell line, WISH cells, were also used to study the effects of PBEF on the expression of IL-6 and IL-8. The expression of the IL-6 and IL-8 genes were quantitated by Northern blotting using total RNA isolated from the cells and calculated as the degree of upregulation (fold) compared to the respective control at each time (see FIGS. 4A-4C). […]
# [3] = system: IL-8 protein in WISH cell culture media; assay: rhPBEF treatment of WISH cells, IL-8 protein in media by ELISA; details: rhPBEF 10 ng/ml, 4 h
# Experimental: as §3, with “h.” for “h. Treatment was carried out in triplicate and each experiment was performed at least three times on different occasions. Controls received minimal media containing 0.5% bovine serum albumin (15 μl) in phosphate buffer saline (PBS).”
# The IL-8 enzyme-linked immunosorbent assay (ELISA) kit was purchased from R&D Systems (Minneapolis, Minn.) and used to determine the IL-8 protein concentration in the culture supernatants following the manufacturer's protocol. […] The basal levels of IL-6 protein in conditioned media of WISH cells were reported to be at the limit of sensitivity of ELISA (see Keelan et al., supra) and could not be considered reliable, therefore the levels of IL-6 protein were not measured.
# [4] = system: key mediators of labor in fetal membrane explants; assay: rhPBEF treatment of fetal membrane explants, gene chip analysis (Affymetrix); details: rhPBEF 100 ng/ml, 4 hours
# Experimental: Fetal membranes from three patients were cut into several 3×3 cm explants. One explant was used to check for infection. Another explant was treated with 100 ng/ml rhPBEF in minimal media for 4 hours, an adjacent explant was used as a control and was incubated in minimal media only for the same period. At the end of this time, total RNA was extracted using the RNeasy Maxi kit (Qiagen Inc., Valencia, Calif.). These RNAs were run in pairs (explants treated and controls from each of the patients), were reverse-transcribed and the resulting cDNAs/cRNAs labeled with tracking fluorescent dyes and hybridized to DNA microchips (Affymetrix Inc.) containing 22,000 gene transcripts. The binding of the fluorescent fragments was proportional to the abundance of the gene in the original samples. Therefore changes in gene expression result in signal differences. […] The Affymetrix system has numerous controls built into the methodology in order to minimize false positive results.
# [5] = system: IL-6 gene expression in fetal membrane explants; assay: rhPBEF treatment of fetal membrane explants, IL-6 gene expression by Northern analysis; details: rhPBEF 100 ng/ml, 4 h, vs control
# From the text: as §1
# Total RNA was extracted (see Chomzynski and Sacchi, supra) and MRNA prepared as previously described (see Aviv and Leder, supra). Samples of MRNA (10-20 μg) were electrophoresed, and the RNA transferred to a nylon membrane (Magna Graph, MSI, Westborough, Mass.) as previously described (see Ognjanovic et al., supra). The cDNA probes were labeled using the Random Primed DNA labeling kit and following the manufacturer's instructions (Invitrogen, Carlsbad, Calif.). […] The Northern blot was quantitated with a Phospholmager (Amersham Pharmacia Biotech, Piscataway, N.Y.), using the G3PDH value for each sample to standardize sample loading. Results were expressed as a ratio to G3PDH. […]
# [6] = system: IL-8 gene expression in amniotic epithelial (WISH) cells; assay: rhPBEF treatment of WISH cells, IL-8 gene expression by Northern analysis; details: rhPBEF 100 ng/ml, 4 h
# Experimental: as §2, with “Statistical analysis was performed using the Tukey-Kramer multiple comparison test.” left out
# The amnion-like epithelial (WISH) cells were obtained from American Type Culture Collection (ATCC# CCL-25) (ATCC, Manassas, Va.). […] The concentration of rhPBEF was determined using the BioRad protein assay and 1, 10 and 100 ng/ml was added to the cells for 4 and 24 h. […]
molecule,measurement,setting,value
B1,upregulation of IL-8 gene expression,[1],120%
same,upregulation of IL-8 gene expression,[1]; listed as PBEF,120%
same,upregulation of IL-8 gene expression,[1]; listed as RhPBEF,significant (p<0.05) increase
same,increase in IL-6 gene expression,[2]; rhPBEF 1 ng/ml,15%
same,increase in IL-6 gene expression,[2]; rhPBEF 10 ng/ml,29%
same,increase in IL-6 gene expression,[2]; rhPBEF 100 ng/ml,44%
same,"IL-6 gene expression, dose dependence","[2]; rhPBEF 1, 10 and 100 ng/ml, 4h",dose-dependent increase
same,increase in secreted IL-8 (ELISA),[3],15%
same,COX-2 gene expression,[4],stimulates; also recorded: significantly upregulated
same,GRO-γ gene expression,[4],significantly upregulated
same,IL-1β gene expression,[4],stimulates; also recorded: significantly upregulated
same,IL-6 gene expression,[4],stimulates; also recorded: significantly upregulated
same,MIP-1α gene expression,[4],significantly upregulated
same,MIP-1β gene expression,[4],significantly upregulated
same,TNF-α gene expression,[4],stimulates; also recorded: significantly upregulated
same,upregulation of IL-6 gene expression,[5],40%
same,increase in IL-8 gene expression,[6],absent
